In the experiment the target is GST-MKK7 (GST-JNKK2; human JNKK2 in pGEX-2T) (human) (UniProt O14733). The experiment is described as follows: in vitro pull-down with purified GST-MKK7 and increasing His6/T7-tagged protein, anti-T7 Western blot; JIP1 under non-saturating conditions. Background: A western blot detects proteins with antibodies after separation by electrophoresis.
Sequence of GST-MKK7 (GST-JNKK2; human JNKK2 in pGEX-2T) (human) (O14733 1-401 Q94H/Q133P): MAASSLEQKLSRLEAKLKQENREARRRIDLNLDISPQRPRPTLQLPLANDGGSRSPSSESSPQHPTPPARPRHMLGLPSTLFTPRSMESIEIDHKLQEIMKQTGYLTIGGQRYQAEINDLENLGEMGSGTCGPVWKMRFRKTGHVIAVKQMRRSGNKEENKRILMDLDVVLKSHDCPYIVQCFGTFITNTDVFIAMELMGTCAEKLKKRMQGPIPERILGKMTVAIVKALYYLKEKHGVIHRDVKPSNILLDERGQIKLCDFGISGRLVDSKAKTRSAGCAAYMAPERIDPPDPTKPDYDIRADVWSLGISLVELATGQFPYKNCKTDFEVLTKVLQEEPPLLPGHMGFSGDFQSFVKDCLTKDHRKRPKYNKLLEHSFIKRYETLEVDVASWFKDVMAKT

As for “His6/T7-JIP1 (MKK7-binding domain of JIP1b, pET28)”, the half maximum binding (HMB) is > 650 nM.

The values are drawn from patent US20050265970A1.
